Source: patent publication US20250009799A1

Molecular target: SH2D3A peptide on HLA-A*02:01 (human)
Experiment: T2/peptide TDCC potency screen with TCR2-T-IL12 cells, peptide titration; reference: DCAF4L2 target peptide; full-length, on cells
Details: chains Valpha:Vbeta

B1: TCR2 (protein)
chain 1: EDQVTQSPEALRLQEGESSSLNCSYTVSGLRGLFWYRQDPGKGPEFLFTLYSAGEEKEKERLKATLTKKESFLHITAPKPEDSATYLCAVQAWGGGSQGNLIFGKGTKLSVKP
chain 2: DSGVTQTPKHLITATGQRVTLRCSPRSGDLSVYWYQQSLDQGLQFLIQYYNGEERAKGNILERFSAQQFPDLHSELNLSSLELGDSALYFCASSAGDRGYEQYFGPGTRLTVT
For B1, the EC50 of peptide relative to the DCAF4L2 target peptide was 87 fold.
